Data as given in patent US20150276749A1 (KONICA MINOLTA, published 2015).

What was measured:
[1] = biological target: T1, soluble-type human DSG3-mouse IgG2aFc fusion protein (human; mouse, UniProt P32926 50-616); experiment: sandwich ELISA, luminescence over blank; immobilized DF151, detection DF151; antigen 5000 pg/mL
T1 construct: also called human desmoglein 3; desmoglein 3 standard; not shown: mouse IgG2a Fc, printed 'mouse IgG2aFc' and 'mouse IgG2 constant region'
T1 sequence: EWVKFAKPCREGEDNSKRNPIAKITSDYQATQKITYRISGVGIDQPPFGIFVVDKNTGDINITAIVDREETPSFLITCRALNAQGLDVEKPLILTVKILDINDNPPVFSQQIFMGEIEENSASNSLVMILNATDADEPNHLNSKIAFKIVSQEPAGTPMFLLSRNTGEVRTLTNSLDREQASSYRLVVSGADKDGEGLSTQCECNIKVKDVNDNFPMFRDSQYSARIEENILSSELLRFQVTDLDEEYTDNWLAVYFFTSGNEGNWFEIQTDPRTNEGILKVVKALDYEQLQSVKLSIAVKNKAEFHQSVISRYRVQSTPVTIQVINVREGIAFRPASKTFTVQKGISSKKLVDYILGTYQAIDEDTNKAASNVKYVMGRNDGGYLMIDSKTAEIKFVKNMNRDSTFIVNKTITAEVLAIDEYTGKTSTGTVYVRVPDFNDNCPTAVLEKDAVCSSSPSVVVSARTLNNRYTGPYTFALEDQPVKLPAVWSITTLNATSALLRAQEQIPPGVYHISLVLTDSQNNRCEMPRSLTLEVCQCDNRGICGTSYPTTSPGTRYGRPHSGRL
Protocol: (§1) Subsequently, the antigen solutions having the above-described concentrations were each added to the plate in an amount of 50 μL/well, and the plate was incubated at room temperature for 1 hour. Then, the antigen solution was removed, and the plate was washed with 0.05% Tween 20-PBS three times. Thereafter, the 1-μg/mL biotinylated antibody solution was added in an amount of 50 μL/well, and the plate was incubated at room temperature for 1 hour.
(§2) Then, after removing the streptavidin-HRP solution and washing the plate with 0.05% Tween 20-PBS three times, a substrate solution (SuperSignal ELISA Femto Maximum Sensitivity Substrate (registered trademark); Pierce Biotechnology, Inc.) was added in an amount of 100 μL/well. One minute thereafter, the luminescence intensity was measured using a luminometer, Fluoroskan Ascent FL (trade name, Thermo Electron Corporation).
(§3) The numerical values shown in Table 1 represent the minimum values of the antigen solution concentration having an S/N ratio of higher than 2 (hereinafter, referred to as “detection limit concentration”) and the unit of the numerical values is pg/mL. The S/N ratio was determined by dividing the luminescence intensity at the respective antigen solution concentrations ([…]) by the luminescence intensity of an antigen-free blank antigen solution (0 μg/mL).

[2] = biological target: T1, soluble-type human DSG3-mouse IgG2aFc …; experiment: sandwich ELISA, luminescence over blank; immobilized DF151, detection MAB1720; antigen 10 pg/mL
Protocol: as §1, §2
(§4) The numerical values shown in Table 1 represent the minimum values of the antigen solution concentration having an S/N ratio of higher than 2 (hereinafter, referred to as “detection limit concentration”) and the unit of the numerical values is pg/mL. […]

[3] = biological target: T1, soluble-type human DSG3-mouse IgG2aFc …; experiment: sandwich ELISA, luminescence over blank; immobilized DF151, detection D219-3; antigen 10 pg/mL
Protocol: as §1, §2, §3

[4] = biological target: T1, soluble-type human DSG3-mouse IgG2aFc …; experiment: sandwich ELISA, luminescence over blank; immobilized DF151, detection D219-3; antigen 25000 pg/mL
Protocol: as §1, §2, §3

[5] = biological target: T1, soluble-type human DSG3-mouse IgG2aFc …; experiment: sandwich ELISA, luminescence over blank; immobilized DF151, detection MAB1720; antigen 200 pg/mL
Protocol: as §1, §2, §3

[6] = biological target: T1, soluble-type human DSG3-mouse IgG2aFc …; experiment: sandwich ELISA, luminescence over blank; immobilized DF151, detection DF151; antigen 1 pg/mL
Protocol: as §1, §2, §3

[7] = biological target: T1, soluble-type human DSG3-mouse IgG2aFc …; experiment: sandwich ELISA, luminescence over blank; immobilized DF151, detection D219-3; antigen 200 pg/mL
Protocol: as §1, §2, §3

[8] = biological target: T1, soluble-type human DSG3-mouse IgG2aFc …; experiment: sandwich ELISA, luminescence over blank; immobilized DF151, detection DF151; antigen 10 pg/mL
Protocol: as §1, §2, §4

[9] = biological target: T1, soluble-type human DSG3-mouse IgG2aFc …; experiment: sandwich ELISA, luminescence over blank; immobilized DF151, detection D219-3; antigen 1000 pg/mL
Protocol: as §1, §2, §3

[10] = biological target: T1, soluble-type human DSG3-mouse IgG2aFc …; experiment: sandwich ELISA, luminescence over blank; immobilized DF151, detection MAB1720; antigen 25000 pg/mL
Protocol: as §1, §2, §3

[11] = biological target: T1, soluble-type human DSG3-mouse IgG2aFc …; experiment: sandwich ELISA, luminescence over blank; immobilized DF151, detection D219-3; antigen 5000 pg/mL
Protocol: as §1, §2, §3

[12] = biological target: T1, soluble-type human DSG3-mouse IgG2aFc …; experiment: sandwich ELISA, luminescence over blank; immobilized DF151, detection MAB1720; antigen 40 pg/mL
Protocol: as §1, §2, §3

- S/N ratio [1]: 11.1
- S/N ratio [2]: 1.1
- S/N ratio [3]: 0.9
- S/N ratio [4]: 50.3
- S/N ratio [5]: 1.6
- S/N ratio [6]: 0.9
- S/N ratio [7]: 1
- S/N ratio [8]: 0.9
- S/N ratio [9]: 2.3
- S/N ratio [10]: 82.2
- S/N ratio [11]: 9.2
- S/N ratio [12]: 1.1
B1: DF151 (DF151[I] antibody) (antibody, mouse IgG2b, kappa, V domains shown)
VH: EVQLQQSGPELVKPGASVKISCKASGYSFTAYYMHWVKQSPEKCLEWIGQINPSTGGTTYNQKFKAKATLTVDKSSSTAYMQLKSLTSEDSAVYYCARWGDSWGQGTTLTVSS
VL: DIVLTQSPASLAVSLGQSVTISCRASESVEYYGTSLMQWYQQKPGQPPKLLIYGASDVESGVPARFSGSGSGTDFSLNIHPVEEDDIAMYFCQQSRKVPYTFGSGTKLEIKR
notes: Complete antibody; Biotinylated as detection antibody in ELISA; labeled with Alexa Fluor 647 as detection antibody in SPFS; also called DF151 antibody
